From article PMC5020499, “Crystal structures of archaeal 2-oxoacid:ferredoxin oxidoreductases from Sulfolobus tokodaii” (Scientific Reports, 2016)
Each block holds one binder with its values, some of them ahead of it.

Legend:
[1] = target: the molecule itself; test: crystal structure; StOFOR1 co-crystallised with 50 mM 2-oxobutyrate and 1 mM CoA; sitting drop, 25 °C, 15% PEG3350, 0.1 M Tris-HCl pH 8.5, 0.1 M NaBr; 2.5 Å; two protomers in the asymmetric unit
[2] = target: T1, StOFOR2 a-subunit (STK_24350) (Sulfolobus tokodaii, UniProt Q96XT2 1-628); test: crystal structure; StOFOR2 ligand-free (2.1 Å) and soaked with 50 mM pyruvate (2.2 Å); sitting drop, 20 °C, 0.7 M ammonium tartrate dibasic, 0.1 M Tris-HCl pH 8.5; one protomer in the asymmetric unit; conditions: both partners purified
T1 construct: a-subunit of 2-oxoacid:ferredoxin oxidoreductase StOFOR2, STK_24350, Sulfolobus tokodaii; gene amplified from genomic DNA with primers from the start codon to the stop codon; domains III (1a-228a), I (228a-500a), II (500a-627/628a); stk_23000 in pOFORAB was replaced with stk_24350; No tag is mentioned; A selenomethionine-labelled form (E. coli B834 (DE3)) was used for phasing only; also called …
T1 sequence (looked up): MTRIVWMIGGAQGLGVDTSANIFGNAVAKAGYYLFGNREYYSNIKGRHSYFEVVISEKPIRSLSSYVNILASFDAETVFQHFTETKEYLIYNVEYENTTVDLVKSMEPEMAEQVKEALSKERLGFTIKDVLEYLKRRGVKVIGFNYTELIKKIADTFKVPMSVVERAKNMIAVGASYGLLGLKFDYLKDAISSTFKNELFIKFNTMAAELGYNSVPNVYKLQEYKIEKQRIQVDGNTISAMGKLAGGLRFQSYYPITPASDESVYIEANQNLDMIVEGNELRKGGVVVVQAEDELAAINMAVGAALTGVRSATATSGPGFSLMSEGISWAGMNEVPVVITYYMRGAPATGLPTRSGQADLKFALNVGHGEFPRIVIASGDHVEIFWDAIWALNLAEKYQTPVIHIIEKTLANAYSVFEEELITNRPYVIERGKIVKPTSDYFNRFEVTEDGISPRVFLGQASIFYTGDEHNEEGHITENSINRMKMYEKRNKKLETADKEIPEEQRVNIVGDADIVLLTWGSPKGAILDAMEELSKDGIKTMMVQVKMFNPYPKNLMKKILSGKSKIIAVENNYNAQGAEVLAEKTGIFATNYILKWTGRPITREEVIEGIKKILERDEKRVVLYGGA

[3] = target: the molecule itself; test: as above

B1: StOFOR1 protomer (heterodimer of a-subunit STK_23000 and b-subunit STK_22980) (complex, Sulfolobus tokodaii strain 7)
chain 1: MRLSWVIGGAQGTGIDTAANIFGNAVASAGYYIYGNREYYSNIKGRHSYFSLTISDKRVRSNTQKIDILVSFDAETVFQHFYDVKDILIYNKAVETTKIDAVQSMEPELAERIKDFLTKQGYETTVKGALEYASKNNVTLIPVNYDEIAKKVADEMKVPLSVTERVKNIVGITISYKLLGLDVNYLIEAINSTFKQDLYRKMNELAVKDSYDIVESRYNLKPSSKERRRFWLDGNTAVAIGKIYGGVRFQSYYPITPASDESVYIEAHQDVLMEDPITGDKKKGTIVVVQAEDELAAINMAIGAALTGVRAATATSGPGFSLMVEGLGWAGMNEVPVVITYYIRGGPSTGLPTRTAQSDLIFPIFAGHGEFPKIVLASGDHAEAFKDAIWALNLAEKYQTPVIHLVEKTLANSYSTIPYEELELDKLKAERGKIVESGDISYKRFKFTEDGISPRAFLGKATMYYTGDEHNEEGHISEDVVNRTMMYEKRMKKLEVADKEIPEESRVKIYGDLNSRNLIITWGSPTGVLRDILEESNFDFTLLQIRMFSPFPKNLVSKLMEGRDKIITVEGNYLAQTSLLVKMYTGKDVTNSILKWNGRPFLRDELEEALIKVIKDGEKRVVLNGGI
chain 2: PQWNDWCPGCGNFGILNAEQQAIVELGVDTKNVVVVSGIGCSGKIPHFFRTPISGVHTLHGRAIAFATGIKLSNPDLVVIVNGGDGDLLGIGAGHFVAAGRRNVDMVVILHDNGVYGLTKGQASPTLKRGEKPKSLPRPNINDAVNPIALAISSGYTFVARGYAYDVKHLKELIKSAIKHKGLALIDVLQPCPTYNDINTKEWYDKRIYKLDTLPDWDPVVKKPEEVNEKIKRAIDKSLEWGDRIPIGIFYQNELVPSYEERIKANSPAYLDYTPAKQLIEKEGKLTTIIDPLLKEREVD
notes: a-subunit of StOFOR1, STK_23000, Sulfolobus tokodaii strain 7, 70 kDa; as the chain of m1; b-subunit of StOFOR1, STK_22980, Sulfolobus tokodaii strain 7, 34 kDa; as the chain of m2; One protomer is the pair of a- and b-subunits that holds one TPP; Two protomers form the (ab)2 enzyme; Cofactors: TPP, Mg2+, [4Fe-4S]; also called STK_23000/STK_22980; source: E. coli C43 (DE3), both subunits …
stoichiometry N [1]: 2

binding result [2]: binds
B2: StOFOR2 b-subunit (STK_24330) (natural protein, Sulfolobus tokodaii, UniProt Q96XT4 1-304, looked up)
chain: MVERKPVFVDWCPGCGDFGILRAEEMAIRELGINPKSVVIVSGIGCSGKIPHFMNLPISGVHTLHGRSIAFATGIKLSNPSLEVIVNVGDGDGLGIGMGHFVHLGRRNIDIAVLVHNNGVYGLTKGQASPTLHRGEKTKSLPKPNIMDAVNPLAVALAAGYTFVARGYAYDVMHLKELIKKAILHKGSALVDILQPCPTYNDINTKEWYDKRVYKLDNVPGWDPVVRKEEEAQKKFEQAIMKSYEWGEKIPIGIFYQNELVPTFEDRLTSNIPNYREYYPAKQQIEINGISTTKIDELIKAKRI
notes: b-subunit of 2-oxoacid:ferredoxin oxidoreductase StOFOR2, STK_24330, Sulfolobus tokodaii; gene amplified from genomic DNA with primers from the start codon to the stop codon; domain VI (1b-305b); stk_22980 in pOFORAB was replaced with stk_24330; No tag is mentioned; Holds the [4Fe-4S] cluster; also called b-subunit of StOFOR2; source: E. coli C43 (DE3), expressed with the a-subunit, purified …

B3: StOFOR2 protomer (heterodimer of a-subunit STK_24350 and b-subunit STK_24330) (complex, Sulfolobus tokodaii)
chain 1: T1 sequence (looked up)
chain 2: B2 chain
notes: a-subunit of StOFOR2, STK_24350, Sulfolobus tokodaii; primers from the start codon to the stop codon; as the chain of m3; b-subunit of StOFOR2, STK_24330, Sulfolobus tokodaii; as the chain of m4; One protomer is the pair of a- and b-subunits that holds one TPP; Two crystallographically identical protomers form the (ab)2 enzyme; Cofactors: TPP, Mg2+, [4Fe-4S]; also called STK_24350/STK_24330; …
stoichiometry N [3]: 2
